Experimental findings from patent publication US20050208042A1 (GENETICS INSTITUTE, published 2005) are described below.

Assay [1] addresses T1, human B7-1 (CD80) expressed on the cell surface (CHO/hB7-1 cells) (human, UniProt P33681 35-288).
T1 construct: whole, on cells; Also used for native B7-1 on human PBL in the MLR; also called rhB7-1
T1 sequence (looked up): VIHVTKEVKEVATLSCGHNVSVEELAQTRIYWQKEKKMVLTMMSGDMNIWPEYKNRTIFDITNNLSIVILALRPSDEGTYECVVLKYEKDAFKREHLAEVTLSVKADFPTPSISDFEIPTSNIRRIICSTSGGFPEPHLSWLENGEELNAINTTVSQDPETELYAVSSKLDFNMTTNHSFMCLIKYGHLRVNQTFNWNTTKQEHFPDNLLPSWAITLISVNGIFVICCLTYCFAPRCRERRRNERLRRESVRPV
As to the kind of experiment: competition binding on CHO cells expressing rhB7-1: unlabeled competitor against 125I-humanized 1F1 tracer, bound/free ratio. As to the method:
(§1) The affinity of the mouse and humanized 1F1 antibodies for the B7-1 antigen was determined by competitive binding with radio-iodinated humanized 1F1 antibody. Three-fold serial dilutions of unlabeled mouse or humanized 1F1 antibodies were mixed with a fixed amount of radio-iodinated humanized 1F1 antibody (40,000-50,000 cpm per test) in PBS containing 2% fetal calf serum, 0.1% sodium azide. 3×10⁴ CHO cells expressing cell surface rhB7-1 were added subsequently and the mixture (in a total volume of 200 μL) was incubated for 2 hr at 4° C. with gentle shaking. The cell-antibody suspension was then transferred to Sarstedt Micro Tubes (part #72.702) containing 100 μL of 80% dibutyl phthalate-20% olive oil. After centrifugation in a microfuge, the Sarstedt tubes were plunged into dry ice for several minutes. Cell-bound ¹²⁵I was determined by clipping the tips of each tube (containing cell pellets) into scintillation vials and counting in a gamma counter. Bound and free counts were determined and the ratio plotted against the concentrations of the cold competitor antibodies according to the method of Berzofsky and Berkower (J. A. Berzofsky and I. J. Berkower, in Fundamental Immunology, W. E. Paul, Raven Press, New York, pp. 595-644 (1984)).

The target of assay [2] is T1, human B7-1 (CD80) expressed on the cell …. As to the kind of experiment: competitive binding against 125I-humanized 1F1 on CHO cells expressing rhB7-1. The procedure:
as §1

The target is the same in assay [3]. In words: 125I direct binding, CHO cells expressing B7-1 as control for non-specific binding. The text has this:
(§2) Binding assays were begun by plating cells onto 96-well tissue culture plates at 10,000 CHO/hB7-2 cells per well. Two days later, adherent cells were gently washed with assay buffer containing nonfat dry milk protein (for blocking nonspecific binding) and sodium azide (to prevent internalization of antibodies by cells). For direct binding assays, ¹²⁵I-labeled anti-B7 antibodies (¹²⁵I-murine anti-human B7-2; 826 cpm/fmol; humanized anti-human B7-2, 883 cpm/fmol) were serially diluted in assay buffer and incubated on cells overnight, allowing antibodies to bind to cell-surface B7 and come to equilibrium. Unbound antibody was gently washed from cells, and bound ¹²⁵I-labeled antibody was detected using an ¹²⁵I scintillant and photodetector system. Non-specific binding to CHO cells was determined for each dilution in the same manner, but on cells expressing the B7-1 molecule that is not recognized by the antibody being tested.

Assay [4] concerns the target T2, human B7-2 (CD86) expressed on the cell surface (CHO/hB7-2 cells) (human, UniProt P42081 24-329).
T2 construct: whole, on cells; Also used for native B7-2 on human PBL in the MLR row under functional; also called rhB7-2
T2 sequence (looked up): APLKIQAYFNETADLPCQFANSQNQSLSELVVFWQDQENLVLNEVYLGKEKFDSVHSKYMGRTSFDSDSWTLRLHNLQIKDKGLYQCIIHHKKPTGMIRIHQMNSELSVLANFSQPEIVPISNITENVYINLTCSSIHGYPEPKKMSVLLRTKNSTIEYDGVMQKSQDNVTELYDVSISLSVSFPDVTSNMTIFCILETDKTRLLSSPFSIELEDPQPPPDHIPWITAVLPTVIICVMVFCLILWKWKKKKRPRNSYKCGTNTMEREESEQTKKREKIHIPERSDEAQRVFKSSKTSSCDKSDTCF
In words: direct binding of 125I-labeled antibody to CHO/hB7-2 cells, half-maximal binding.
Text: as §2
The data, means of triplicate wells with nonspecific binding subtracted, were fit to a hyperbolic saturation curve using Graphpad PrismJ software. […] Both murine and humanized anti-B7-2 antibodies recognize cell surface expressed hB7-2 with high affinity.

Assay [5] deals with T3, human B7-2Ig (recombinant soluble hB7-2Ig) (human, UniProt P42081 24-247).
T3 construct: extracellular domain; Secreted by CHO cells, purified on protein A, immobilized on the BIACORE chip; not shown: hinge-CH2-CH3 domains of the human IgG1 heavy chain
T3 sequence (looked up): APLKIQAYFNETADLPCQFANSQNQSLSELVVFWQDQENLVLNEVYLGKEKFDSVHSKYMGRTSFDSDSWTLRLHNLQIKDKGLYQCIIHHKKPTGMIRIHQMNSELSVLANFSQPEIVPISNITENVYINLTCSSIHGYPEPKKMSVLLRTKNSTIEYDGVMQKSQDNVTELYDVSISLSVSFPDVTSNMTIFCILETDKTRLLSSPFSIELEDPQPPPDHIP
As to the kind of experiment: SPR (BIACORE), hB7-2Ig immobilized, bivalent model, mean of three runs. As to the method:
(§3) The BIACORE® biosensor (BIACORE®; Uppsalla, Sweden) was used to determine binding kinetics of murine and humanized anti-B7-2 human antibodies to human B7-2Ig. Hunan B7-2Ig (hB7-2Ig) was immobilized onto the dextran matrix of a BIACORE® sensor chip. Humanized and murine anti-human B7-2 were tested at 200, 100, 50, and 20 nM. Each dilution was tested 4 times per run and a total of three separate runs performed. Anti-human B7-2 antibody binding was measured in real time by Surface Plasmon Resonance (SPR) and global analysis was performed using the bivalent binding model in BIA evaluation software (version 3.1). For each sample, the association (kₐ), dissociation (kd), and equilibrium dissociation constant (KD) were determined.
On the technique in general: Surface plasmon resonance follows binding to a sensor surface in real time, without labels.

The target of assay [6] is T2, human B7-2 (CD86) expressed on the cell …. In words: cell-based or functional assay.
The target is the same in assay [7]. As to the kind of experiment: competitive binding against 125I-murine 3D1 on CHO/hB7-2 cells. As to the method: (§4) The relative affinities, of the murine and humanized 3D1 antibodies for the B7-2 antigen were determined by competitive binding assays. Three-fold serial dilutions of unlabeled humanized or murine 3D1 antibodies were mixed with a fixed amount of radio-iodinated murine 3D1 antibody (40,000-50,000 cpm per test in PBS containing 2% fetal calf serum).
(§5) 1×10⁵ CHO cells expressing cell surface rhB7-2 (CHO/hB7-2) were added subsequently and the mixture (in a total volume of 200 μL) was incubated for 2 hr at 4° C. with gentle shaking. The cell-antibody suspension was then transferred to Sarstedt Micro Tubes (part #72.702) containing 100 μL of 80% dibutyl phthalate-20% olive oil. After centrifugation in a microfuge, the Sarstedt tubes were plunged into dry ice for several minutes. Cell-bound ¹²⁵I was determined by clipping tips of each tube (containing cell pellets) into scintillation vials and counting in a gamma counter. Bound and free counts were determined and the ratio plotted against the concentrations of the cold competitor antibodies according to the method of Berzofsky and Berkower (J. A. Berzofsky and I. J. Berkower, in Fundamental Immunology 9ed. W. E. Paul), Raven Press (New York), 595 (1984)).

For assay [8] the target is unchanged. In words: competition binding on CHO/hB7-2 cells: unlabeled competitor against 125I-murine 3D1 tracer, bound/free ratio. As to the method:
as §4, §5

The target of assay [9] is T3, human B7-2Ig (recombinant soluble …). As to the kind of experiment: SPR (BIACORE), hB7-2Ig immobilized. The procedure:
as §3

B1: humanized 1F1 antibody, IgG2.M3 form (antibody, V domains shown)
VH: EVQLVQSGAEVKKPGASVKVSCKPSGFNIKDYYMHWVRQAPGQGLEWIGWIDPENGNTLYDPKFQGKATITADTSTSTAYMELSSLRSEDTAVYYCAREGLFFAYWGQGTLVTVSS
VL: DIQMTQSPSSLSASVGDRVTITCSVSSSISSSNLHWYQQKPGKAPKPLIYGTSNLASGVPSRFSGSGSGTDYTLTISSLQPEDVATYYCQQWSSYPLTFGQGTKVEIK
notes: Human gamma 2 constant region variant M3 (Val and Gly at positions 234 and 237 replaced with Ala) and human kappa light chain; also called hu1F1; the IgG2.M3 antibody
Consider B1, for which the “IC50 (read off the curve)” value in [1] is roughly 1 nM. Further, the Ka in assay [2] was roughly 1e+09 M⁻¹.

B2: humanized anti-human B7-2 mAb (humanized 3D1), isotype not stated in the example (antibody, V domains shown)
VH: QVQLVQSGAEVKKPGSSVKVSCKASGYTFTDYAIQWVRQAPGQGLEWIGVINIYYDNTNYNQKFKGKATMTVDKSTSTAYMELSSLRSEDTAVYYCARAAWYMDYWGQGTLVTVSS
VL: DIVLTQSPDSLAVSLGERATISCKSSQSLLNSRTRENYLAWYQQKPGQPPKLLIYWASTRESGVPDRFSGSGSGTDFTLTISSLQAEDVAVYYCTQSYNLYTFGQGTKVEIK
notes: Same variable regions; The entries include signal peptides (see the note of m2); also called humanized anti-B7-2; humanized anti-hB7-2
Turning to B2, the binding result in assay [3] is on record as “no binding”. Moreover, the Kd was roughly 1 nM in assay [4] and 5.1 nM in assay [5]. Also, the “IC50 of inhibition of CD28+ human T cell proliferation stimulated with PMA and CHO/hB7-2 cells” value in assay [6] stood at 0.05 nM.

B3: humanized 3D1 antibody, IgG2.M3 form (antibody, V domains shown)
VH: B2 VH
VL: B2 VL
notes: Human gamma 2 constant region variant M3 (Val and Gly at positions 234 and 237 replaced with Ala; pVg2.M3 vector) and human kappa light chain; The entries include signal peptides (see the note of m2); also called humanized IgG2.M3 anti-human B7-2; hu3D1
With B3, the Ka in assay [7] was roughly 1e+09 M⁻¹.

B4: humanized 3D1 antibody, IgG4 form (antibody, V domains shown)
VH: B2 VH
VL: B2 VL
notes: Human gamma 4 constant region (pVg4 vector) and human kappa light chain (pVk); also called humanized IgG4 anti-human B7-2; hu3D1
The molecule B4 returned a Ka in assay [7] of roughly 1e+09 M⁻¹. Also, in [8], the “IC50 (read off the curve)” value was roughly 1 nM.

B5: murine 3D1 monoclonal antibody (murine anti-human B7-2 mAb) (antibody, V domains shown)
VH: QVQLQQSGPELVRPGESVKISCKGSGYTFTDYAIQWVKQSHAKSLEWIGVINIYYDNTNYNQKFKGKATMTVDKSSSTAYMELARLTSEDSAIYYCARAAWYMDYWGQGTSVTVSS
VL: DIVLSQSPSSLAVSAGEKVTMSCKSSQSLLNSRTRENYLAWYQQKPGQSPKLLIYWASTRESGVPDRFTGSGSGTDFTLTISSVQAEDLAVYYCTQSYNLYTFGGGTKLEIK
notes: Hybridoma mouse antibody with kappa light chain; also called HF2.3D1; mouse 3D1
As to B5, in assay [9], the “fold higher affinity than the humanized anti-B7-2 mAb” value was roughly 2.8 fold. For the same molecule, the binding result in [3] was “no binding”. Also, the Kd was roughly 1 nM in assay [4] and 1.8 nM in assay [5]. Besides, the Ka in [7] was roughly 1e+09 M⁻¹. In [6], the “IC50 of inhibition of CD28+ human T cell proliferation stimulated with PMA and CHO/hB7-2 cells” value turned out to be 0.072 nM.
